{"source": "paper doi:10.1101/2023.12.05.570191", "about": "(bioRxiv, 2023)", "target": "the molecule itself", "test": "FRET or BRET"}
{"protein": "Cy5-labelled metallated Zur (Zur^Cy5, Cy5 at C113) (natural protein, E. coli, Cy5 (maleimide chemistry) at C113 of one monomer of the dimer) MEKTTTQELLAQAEKISAQRNVRLTPQRLEVLRLMSLQDGAISAYDLLDLLREAEPQAKPPTVYRALDFLLEQGFVHKVESTNSYVLCHLFDQPTHTSAMFICDRCGAVKEECAEGVEDIMHTLAAKMGFALRHNVIEAHGLCAACVEVEASRHPEQSQHDHSVQVKKKPR", "values": [{"measurement": "binding result", "result": "binds"}]}
